Test results: patent publication US20210388087A1 (Chugai, published 2021)
Residue numbers refer to the chain shown, from its start. In names and notes the source's numbering stands.

B1: GLS3000 H27dA (antibody, name in Kabat numbering, V domains shown)
VH: QVQLVESGGGVVQPGRSLRLSCAASGFTFSNAWMHWVRQAPGKGLEWVAQIKAKSNNYATYYAESVKGRFTISRDDSKNSLYLQMNSLKTEDTAVYYCRYVHYGAYYGVDAWGQGTTVTVSS
VL: DIVMTQSPLSLPVTPGEPASISCRSSQSLVASNRNTYLHWYQQKPGQAPRLLIYKVSNRFSGVPDRFSGSGSGTDFTLKISRVEAEDVGVYYCGQGTQVPYTFGQGTKLEIK
notes: one-arm IgG as m2
B2: GLS3000 F55E (antibody, name in Kabat numbering, V domains shown)
VH: B1 VH
VL: B1 VL with A31H, F60E
notes: one-arm IgG as m2
B3: GLS3000 G89N (antibody, name in Kabat numbering, V domains shown)
VH: B1 VH
VL: B1 VL with A31H, G94N
notes: one-arm IgG as m2
B4: GLS3000 G89K (antibody, name in Kabat numbering, V domains shown)
VH: B1 VH
VL: B1 VL with A31H, G94K
notes: one-arm IgG as m2
B5: GLS3000 F55V (antibody, name in Kabat numbering, V domains shown)
VH: B1 VH
VL: B1 VL with A31H, F60V
notes: one-arm IgG as m2
B6: GLS3000 F55W (antibody, name in Kabat numbering, V domains shown)
VH: B1 VH
VL: B1 VL with A31H, F60W
notes: one-arm IgG as m2
B7: GLS3000 G89A (antibody, name in Kabat numbering, V domains shown)
VH: B1 VH
VL: B1 VL with A31H, G94A
notes: one-arm IgG as m2
B8: GLS3000 F55R (antibody, name in Kabat numbering, V domains shown)
VH: B1 VH
VL: B1 VL with A31H, F60R
notes: one-arm IgG as m2
B9: GLS3000 F55P (antibody, name in Kabat numbering, V domains shown)
VH: B1 VH
VL: B1 VL with A31H, F60P
notes: one-arm IgG as m2
B10: GLS3000 F55I (antibody, name in Kabat numbering, V domains shown)
VH: B1 VH
VL: B1 VL with A31H, F60I
notes: one-arm IgG as m2
B11: GLS3000 G89I (antibody, name in Kabat numbering, V domains shown)
VH: B1 VH
VL: B1 VL with A31H, G94I
notes: one-arm IgG as m2
B12: GLS3000 F55S (antibody, name in Kabat numbering, V domains shown)
VH: B1 VH
VL: B1 VL with A31H, F60S
notes: one-arm IgG as m2
B13: GLS3000 G89M (antibody, name in Kabat numbering, V domains shown)
VH: B1 VH
VL: B1 VL with A31H, G94M
notes: one-arm IgG as m2
B14: GLS3000 F55D (antibody, name in Kabat numbering, V domains shown)
VH: B1 VH
VL: B1 VL with A31H, F60D
notes: one-arm IgG as m2
B15: GLS3000 F55K (antibody, name in Kabat numbering, V domains shown)
VH: B1 VH
VL: B1 VL with A31H, F60K
notes: one-arm IgG as m2
B16: GLS3000 F55N (antibody, name in Kabat numbering, V domains shown)
VH: B1 VH
VL: B1 VL with A31H, F60N
notes: one-arm IgG as m2
B17: GLS3000 F55L (antibody, name in Kabat numbering, V domains shown)
VH: B1 VH
VL: B1 VL with A31H, F60L
notes: one-arm IgG as m2
B18: GLS3000 F55Y (antibody, name in Kabat numbering, V domains shown)
VH: B1 VH
VL: B1 VL with A31H, F60Y
notes: one-arm IgG as m2
B19: GLS3000 G89L (antibody, name in Kabat numbering, V domains shown)
VH: B1 VH
VL: B1 VL with A31H, G94L
notes: one-arm IgG as m2
B20: GLS3000 G89F (antibody, name in Kabat numbering, V domains shown)
VH: B1 VH
VL: B1 VL with A31H, G94F
notes: one-arm IgG as m2
B21: GLS3000 G89P (antibody, name in Kabat numbering, V domains shown)
VH: B1 VH
VL: B1 VL with A31H, G94P
notes: one-arm IgG as m2
B22: GLS3000 F55Q (antibody, name in Kabat numbering, V domains shown)
VH: B1 VH
VL: B1 VL with A31H, F60Q
notes: one-arm IgG as m2
B23: GLS3000 F55M (antibody, name in Kabat numbering, V domains shown)
VH: B1 VH
VL: B1 VL with A31H, F60M
notes: one-arm IgG as m2
B24: GLS3000 F55H (antibody, name in Kabat numbering, V domains shown)
VH: B1 VH
VL: B1 VL with A31H, F60H
notes: one-arm IgG as m2
B25: GLS3000 G89E (antibody, name in Kabat numbering, V domains shown)
VH: B1 VH
VL: B1 VL with A31H, G94E
notes: one-arm IgG as m2
B26: GLS3000 F55G (antibody, name in Kabat numbering, V domains shown)
VH: B1 VH
VL: B1 VL with A31H, F60G
notes: one-arm IgG as m2
B27: GLS3000 G89Q (antibody, name in Kabat numbering, V domains shown)
VH: B1 VH
VL: B1 VL with A31H, G94Q
notes: one-arm IgG as m2
B28: GLS3000 G89H (antibody, name in Kabat numbering, V domains shown)
VH: B1 VH
VL: B1 VL with A31H, G94H
notes: one-arm IgG as m2
B29: GLS3000 F55A (antibody, name in Kabat numbering, V domains shown)
VH: B1 VH
VL: B1 VL with A31H, F60A
notes: one-arm IgG as m2
B30: GLS3000 G89D (antibody, name in Kabat numbering, V domains shown)
VH: B1 VH
VL: B1 VL with A31H, G94D
notes: one-arm IgG as m2
B31: GLS3000 F55T (antibody, name in Kabat numbering, V domains shown)
VH: B1 VH
VL: B1 VL with A31H, F60T
notes: one-arm IgG as m2
B32: H183/L072 VH Y59S (antibody, name in Kabat numbering, V domains shown)
VH: QVQLVESGGGLVQPGRSLRLSCAASGFTFSNAWMHWVRQAPGKGLEWVAQIKDKGNAYAAYSAPSVKGRFTISRDDSKNSIYLQMNSLKTEDTAVYYCHYVHYASASTVLPAFGVDAWGQGTTVTVSS
VL: B1 VL with R24Q, S25A, S28E, A31H, S32M, S61P, G94A, Q98S, Y101F
B33: H183/L072 VH Y97M (antibody, name in Kabat numbering, V domains shown)
VH: B32 VH with S62Y, Y103M
VL: B1 VL with R24Q, S25A, S28E, A31H, S32M, S61P, G94A, Q98S, Y101F
B34: H183/L072 VH Y94A (antibody, name in Kabat numbering, V domains shown)
VH: B32 VH with S62Y, Y100A
VL: B1 VL with R24Q, S25A, S28E, A31H, S32M, S61P, G94A, Q98S, Y101F
B35: H183/L072 VH Y97A (antibody, name in Kabat numbering, V domains shown)
VH: B32 VH with S62Y, Y103A
VL: B1 VL with R24Q, S25A, S28E, A31H, S32M, S61P, G94A, Q98S, Y101F
B36: H183/L072 VH Y97I (antibody, name in Kabat numbering, V domains shown)
VH: B32 VH with S62Y, Y103I
VL: B1 VL with R24Q, S25A, S28E, A31H, S32M, S61P, G94A, Q98S, Y101F
B37: H183/L072 VH Y97L (antibody, name in Kabat numbering, V domains shown)
VH: B32 VH with S62Y, Y103L
VL: B1 VL with R24Q, S25A, S28E, A31H, S32M, S61P, G94A, Q98S, Y101F
B38: H183/L072 VH Y94M (antibody, name in Kabat numbering, V domains shown)
VH: B32 VH with S62Y, Y100M
VL: B1 VL with R24Q, S25A, S28E, A31H, S32M, S61P, G94A, Q98S, Y101F
B39: H183/L072 VH Y59V (antibody, name in Kabat numbering, V domains shown)
VH: B32 VH with S62V
VL: B1 VL with R24Q, S25A, S28E, A31H, S32M, S61P, G94A, Q98S, Y101F
B40: H183/L072 VH Y97P (antibody, name in Kabat numbering, V domains shown)
VH: B32 VH with S62Y, Y103P
VL: B1 VL with R24Q, S25A, S28E, A31H, S32M, S61P, G94A, Q98S, Y101F
B41: H183/L072 VH Y59W (antibody, name in Kabat numbering, V domains shown)
VH: B32 VH with S62W
VL: B1 VL with R24Q, S25A, S28E, A31H, S32M, S61P, G94A, Q98S, Y101F
B42: H183/L072 VH Y59T (antibody, name in Kabat numbering, V domains shown)
VH: B32 VH with S62T
VL: B1 VL with R24Q, S25A, S28E, A31H, S32M, S61P, G94A, Q98S, Y101F
B43: H183/L072 VH Y94I (antibody, name in Kabat numbering, V domains shown)
VH: B32 VH with S62Y, Y100I
VL: B1 VL with R24Q, S25A, S28E, A31H, S32M, S61P, G94A, Q98S, Y101F
B44: H183/L072 VH Y94P (antibody, name in Kabat numbering, V domains shown)
VH: B32 VH with S62Y, Y100P
VL: B1 VL with R24Q, S25A, S28E, A31H, S32M, S61P, G94A, Q98S, Y101F
B45: H183/L072 VH Y94L (antibody, name in Kabat numbering, V domains shown)
VH: B32 VH with S62Y, Y100L
VL: B1 VL with R24Q, S25A, S28E, A31H, S32M, S61P, G94A, Q98S, Y101F

target: T1, CD3 epsilon homodimer protein (UniProt P07766 23-126); experiment: SPR Biacore T200, CD3e homodimer on chip, vs unaltered GLS3000 antibody
T1 construct: also called CD3 (CD3 epsilon)
T1 sequence (P07766 23-126): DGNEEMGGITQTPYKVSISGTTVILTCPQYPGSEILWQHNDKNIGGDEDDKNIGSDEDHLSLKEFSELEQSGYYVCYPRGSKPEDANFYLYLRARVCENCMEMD

ratio of amounts bound (Z=Y/X)	Binder
0.48	B1
0.72	B2
0.8	B3
0.4	B4
0.71	B5
0.69	B6
1.13	B7
1.31	B8
1.16	B9
0.82	B10
1.07	B11
0.69	B12
0.52	B13
0.65	B14
1.33	B15
0.98	B16

ratio of amounts bound (Z=Y/X)	Binder
0.76	B17
0.92	B18
0.94	B19
1.09	B20
0.35	B21
0.91	B22
0.8	B23
0.94	B24
0.26	B25
1.31	B26
0.38	B27
0.7	B28
1.13	B29
0.33	B30
0.41	B31

target: T2, Human CD137 ECD (human); experiment: single mutant vs template dBBDu183H
T2 construct: also called 4-1BB
T2 sequence (chain, as listed by the source limits assumed): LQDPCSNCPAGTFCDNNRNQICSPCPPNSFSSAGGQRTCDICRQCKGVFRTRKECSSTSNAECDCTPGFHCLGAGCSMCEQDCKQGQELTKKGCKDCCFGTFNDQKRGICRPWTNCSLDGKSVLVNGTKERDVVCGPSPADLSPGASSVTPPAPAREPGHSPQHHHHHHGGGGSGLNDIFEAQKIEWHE

fold change of affinity	Binder
0.8 fold	B32
0 fold	B33
0 fold	B34
0 fold	B35
0 fold	B36
0 fold	B37
3.2 fold	B38
0.8 fold	B39
0 fold	B40
1.5 fold	B41
0.8 fold	B42
0 fold	B43
0 fold	B44
0 fold	B45
